Test results from article doi:10.1101/212233 (bioRxiv, 2017).

Molecular target: the molecule itself
Test: cryo-EM structure

B1: DARP14 subunit A (cage subunit A fused to the DARPin by a continuous alpha helix) (other)
chain: MRITTKVGDKGSTRLFGGEEVWKDSPIIEANGTLDELTSFIGEAKHYVDEEMKGILEEIQNDIYKIMGEIGSKGKIEGISEERIAWLLKLILRYMEMVNLKSFVLPGGTLESAKLDVCRTIARRALRKVLTVTREFGIGAEAAAYLLALSDLLFLLARVIEIELGKKLLEAARAGQDDEVRILMANGADVNAHDDQGSTPLHLAAWIGHPEIVEVLLKHGADVNARDTDGWTPLHLAADNGHLEIVEVLLKYGADVNAQDAYGLTPLHLAADRGHLEIVEVLLKHGADVNAQDKFGKTAFDISIDNGNEDLAEILQKLN
- binding result: binds

B2: DARP14 subunit B (unfused cage subunit B) (other)
chain: MPHLVIEATANLRLETSPGELLEQANKALFASGQFGEADIKSRFVTLEAYRQGTAAVERAYLHACLSILDGRDIATRTLLGASLCAVLAEAVAGGGEEGVQVSVEVREMERLSYAKRVVARQR
- binding result: binds
